Experimental data from US20260209386A1 (MYTHIC THERAPEUTICS, published 2026).
Positions count from the first letter of the chain named.

B1: MYT11102 (antibody, V domains shown)
VH: EVQLVESGGGLVQPGGSLRLSCTASHFSLSTYAMSWVRQAPGKGLEWVGMIYINDNTYYASWAKGRFTISRDTSKNTVYLQMNSLRAEDTAVYFCARDIGISYYIGVSLWGQGTLVTVSS
VL: EIVMTQSPSTLSASVGDRVIITCQASQSIGTRLSWYQQKPGKAPKLLIYGASKLATGVPSRFSGSGSGAEFTLTISSLQPDDFATYYCLGEYSYTTTDGIAFGQGTKLTVL
notes: MYT9412 HC variant
B2: MYT11156 (antibody, V domains shown)
VH: B1 VH with H26G
VL: B1 VL with G50H
notes: MYT9412 LC variant
B3: MYT11154 (antibody, V domains shown)
VH: B1 VH with H26G
VL: B1 VL with L33H
notes: MYT9412 LC variant
B4: MYT11160 (antibody, V domains shown)
VH: B1 VH with H26G
VL: B1 VL with L54H
notes: MYT9412 LC variant
B5: MYT11126 (antibody, V domains shown)
VH: B1 VH with H26G, K64H
VL: B1 VL
notes: MYT9412 HC variant
B6: MYT11127 (antibody, V domains shown)
VH: B1 VH with H26G, G65H
VL: B1 VL
notes: MYT9412 HC variant
B7: MYT11149 (antibody, V domains shown)
VH: B1 VH with H26G
VL: B1 VL with S28H
notes: MYT9412 LC variant
B8: MYT11159 (antibody, V domains shown)
VH: B1 VH with H26G
VL: B1 VL with K53H
notes: MYT9412 LC variant
B9: MYT11110 (antibody, V domains shown)
VH: B1 VH with H26G, M34H
VL: B1 VL
notes: MYT9412 HC variant
B10: MYT11116 (antibody, V domains shown)
VH: B1 VH with H26G, N54H
VL: B1 VL
notes: MYT9412 HC variant
B11: MYT11125 (antibody, V domains shown)
VH: B1 VH with H26G, A63H
VL: B1 VL
notes: MYT9412 HC variant
B12: MYT11109 (antibody, V domains shown)
VH: B1 VH with H26G, A33H
VL: B1 VL
notes: MYT9412 HC variant
B13: MYT11119 (antibody, V domains shown)
VH: B1 VH with H26G, T57H
VL: B1 VL
notes: MYT9412 HC variant
B14: MYT11104 (antibody, V domains shown)
VH: B1 VH with H26G, S28H
VL: B1 VL
notes: MYT9412 HC variant
B15: MYT11123 (antibody, V domains shown)
VH: B1 VH with H26G, S61H
VL: B1 VL
notes: MYT9412 HC variant
B16: MYT11124 (antibody, V domains shown)
VH: B1 VH with H26G, W62H
VL: B1 VL
notes: MYT9412 HC variant
B17: MYT11155 (antibody, V domains shown)
VH: B1 VH with H26G
VL: B1 VL with S34H
notes: MYT9412 LC variant
B18: MYT11158 (antibody, V domains shown)
VH: B1 VH with H26G
VL: B1 VL with S52H
notes: MYT9412 LC variant
B19: MYT11147 (antibody, V domains shown)
VH: B1 VH with H26G
VL: B1 VL with S26H
notes: MYT9412 LC variant
B20: MYT11141 (antibody, V domains shown)
VH: B1 VH with H26G, L109H
VL: B1 VL
notes: MYT9412 HC variant
B21: MYT11122 (antibody, V domains shown)
VH: B1 VH with H26G, A60H
VL: B1 VL
notes: MYT9412 HC variant
B22: MYT11121 (antibody, V domains shown)
VH: B1 VH with H26G, Y59H
VL: B1 VL
notes: MYT9412 HC variant
B23: MYT11140 (antibody, V domains shown)
VH: B1 VH with H26G, S108H
VL: B1 VL
notes: MYT9412 HC variant
B24: MYT11145 (antibody, V domains shown)
VH: B1 VH with H26G
VL: B1 VL with Q24H
notes: MYT9412 LC variant
B25: MYT11118 (antibody, V domains shown)
VH: B1 VH with H26G, N56H
VL: B1 VL
notes: MYT9412 HC variant
B26: MYT11138 (antibody, V domains shown)
VH: B1 VH with H26G, G106H
VL: B1 VL
notes: MYT9412 HC variant
B27: MYT11135 (antibody, V domains shown)
VH: B1 VH with H26G, Y103H
VL: B1 VL
notes: MYT9412 HC variant
B28: MYT11139 (antibody, V domains shown)
VH: B1 VH with H26G, V107H
VL: B1 VL
notes: MYT9412 HC variant
B29: MYT11113 (antibody, V domains shown)
VH: B1 VH with H26G, I51H
VL: B1 VL
notes: MYT9412 HC variant
B30: MYT11129 (antibody, V domains shown)
VH: B1 VH with H26G, R97H
VL: B1 VL
notes: MYT9412 HC variant
B31: MYT11157 (antibody, V domains shown)
VH: B1 VH with H26G
VL: B1 VL with A51H
notes: MYT9412 LC variant
B32: MYT11148 (antibody, V domains shown)
VH: B1 VH with H26G
VL: B1 VL with Q27H
notes: MYT9412 LC variant
B33: MYT11089 (antibody, V domains shown)
VH: EVQLVESGGGLVQPGGSLRLSCTASGLSLSSYWMSWVRQAPGKGLEWVGVISAGGNTYYANWAKGRFTISRDTSKNTVYLQMNSLRAEDTAVYFCARGDDGYTNAAYVSNLWGQGTLVTVSS
VL: EIVMTQSPSTLSASVGDRVIITCQASQSISSWLSWYQQKPGKAPKLLIYKASTLAHGVPSRFSGSGSGAEFTLTISSLQPDDFATYYCQSYFDSTTIAFGQGTKLTVL
notes: MYT9361 LC variant
B34: MYT11092 (antibody, V domains shown)
VH: B33 VH
VL: B33 VL with H56S, Y91H
notes: MYT9361 LC variant
B35: MYT11098 (antibody, V domains shown)
VH: B33 VH
VL: B33 VL with H56S, I97H
notes: MYT9361 LC variant
B36: MYT11099 (antibody, V domains shown)
VH: B33 VH
VL: B33 VL with H56S, A98H
notes: MYT9361 LC variant
B37: MYT11090 (antibody, V domains shown)
VH: B33 VH
VL: B33 VL with H56S, Q89H
notes: MYT9361 LC variant
B38: MYT11095 (antibody, V domains shown)
VH: B33 VH
VL: B33 VL with H56S, S94H
notes: MYT9361 LC variant
B39: MYT11097 (antibody, V domains shown)
VH: B33 VH
VL: B33 VL with H56S, T96H
notes: MYT9361 LC variant

Assays:
[1] = target: T1, Human PTK7 Protein, His Tag, Acro Biosystems (human, UniProt Q13308 31-704); experiment: BLI, anti-human Fc capture, 50 nM PTK7; 2 = substantially similar binding relative to parent
T1 construct: Bought recombinant protein; also called CCK4; not shown: His tag
T1 sequence: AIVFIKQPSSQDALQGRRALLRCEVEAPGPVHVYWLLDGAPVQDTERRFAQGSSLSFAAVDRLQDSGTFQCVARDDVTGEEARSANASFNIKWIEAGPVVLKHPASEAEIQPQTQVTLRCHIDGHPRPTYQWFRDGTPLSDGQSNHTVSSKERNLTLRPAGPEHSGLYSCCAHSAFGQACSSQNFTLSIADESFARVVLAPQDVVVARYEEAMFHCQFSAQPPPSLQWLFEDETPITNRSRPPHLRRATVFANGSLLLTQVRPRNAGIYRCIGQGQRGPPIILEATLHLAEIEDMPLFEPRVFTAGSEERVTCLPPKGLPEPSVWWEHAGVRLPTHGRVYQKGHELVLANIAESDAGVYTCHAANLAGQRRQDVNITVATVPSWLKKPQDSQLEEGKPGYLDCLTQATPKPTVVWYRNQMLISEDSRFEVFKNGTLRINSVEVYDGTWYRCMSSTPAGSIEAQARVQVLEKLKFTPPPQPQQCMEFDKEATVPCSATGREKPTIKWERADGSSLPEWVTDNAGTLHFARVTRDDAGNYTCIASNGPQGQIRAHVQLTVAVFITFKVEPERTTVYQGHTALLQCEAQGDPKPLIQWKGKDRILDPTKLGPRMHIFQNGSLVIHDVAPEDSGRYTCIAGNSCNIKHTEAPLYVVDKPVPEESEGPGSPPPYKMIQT

[2] = target: T2, Human PTK7 Protein, His Tag (Acro Biosystems) (human, UniProt Q13308 31-704); experiment: BLI (Octet), antibody on anti-human Fc sensor, 50 nM PTK7; grade 2 = substantially similar binding relative to parent
T2 construct: Bought His-tagged protein; also called CCK4; not shown: His tag
T2 sequence: T1 sequence

Row | Binder | binding result [1] | binding result [2]
1 | B1 | binds | 
2 | B2 | binds | 
3 | B3 | binds | 
4 | B4 | binds | 
5 | B5 | binds | 
6 | B6 | binds | 
7 | B7 | binds | 
8 | B8 | binds | 
9 | B9 | binds | 
10 | B10 | binds | 
11 | B11 | binds | 
12 | B12 | binds | 
13 | B13 | binds | 
14 | B14 | binds | 
15 | B15 | binds | 
16 | B16 | binds | 
17 | B17 | binds | 
18 | B18 | binds | 
19 | B19 | binds | 
20 | B20 | binds | 

Row | Binder | binding result [1] | binding result [2]
21 | B21 | binds | 
22 | B22 | binds | 
23 | B23 | binds | 
24 | B24 | binds | 
25 | B25 | binds | 
26 | B26 | binds | 
27 | B27 | binds | 
28 | B28 | binds | 
29 | B29 | binds | 
30 | B30 | binds | 
31 | B31 | binds | 
32 | B32 | binds | 
33 | B33 |  | binds
34 | B34 |  | binds
35 | B35 |  | binds
36 | B36 |  | binds
37 | B37 |  | binds
38 | B38 |  | binds
39 | B39 |  | binds
